From patent US20200002421A1, “ANTI-B7-H3 ANTIBODIES AND ANTIBODY DRUG CONJUGATES” (AbbVie Inc., priority 2016, published 2020)

Legend:
huB7-H3 = molecular target: T1, huB7-H3 (Homo sapiens, UniProt Q5ZPR3); experiment: Biacore T200 SPR binding kinetics, mAb capture; conditions: Table 3
T1 construct: His tag (6xHis) (C)
T1 sequence (Q5ZPR3 with tags, fused parts or gaps): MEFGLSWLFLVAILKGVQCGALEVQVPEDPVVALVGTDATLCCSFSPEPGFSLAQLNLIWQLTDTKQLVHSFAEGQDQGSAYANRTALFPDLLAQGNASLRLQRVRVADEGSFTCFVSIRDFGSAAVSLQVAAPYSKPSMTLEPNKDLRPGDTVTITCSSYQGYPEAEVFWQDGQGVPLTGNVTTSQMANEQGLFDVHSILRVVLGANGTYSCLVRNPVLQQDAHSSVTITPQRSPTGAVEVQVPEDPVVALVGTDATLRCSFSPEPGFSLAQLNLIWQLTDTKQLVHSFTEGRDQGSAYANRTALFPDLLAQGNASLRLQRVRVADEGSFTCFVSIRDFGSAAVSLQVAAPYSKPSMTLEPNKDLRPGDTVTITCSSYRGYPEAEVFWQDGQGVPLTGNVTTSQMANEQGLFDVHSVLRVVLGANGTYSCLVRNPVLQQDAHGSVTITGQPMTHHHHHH
Protocol: The binding affinity of the purified anti-B7-H3 monoclonal antibodies was determined by surface […]. […] The binding kinetics were derived from SPR measurements using a Biacore T200 instrument and a mAb capture approach (as described in the materials and methods below).
Biacore T200 SPR instruments were used to measure the binding kinetics of human B7-H3 (4Ig-B7-H3 variant) (analyte) binding to various mAbs (ligands). The assay format was Fc-based capture via immobilized anti-mouse (Fc) (Pierce 31170) or immobilized anti-human (Fc) (Pierce 31125). A standard amine coupling protocol was employed to immobilize the capture reagents via primary amines to the carboxy-methyl (CM) dextran surface of CM5 sensorchips (Biacore); capture antibodies were coupled to a level of approximately 5000 RU. For binding kinetic measurements the assay buffer was HBS-EP+(Biacore): 10 mM Hepes, pH7.4, 150 mM NaCl, 3 mM EDTA, 0.05% polysorbate 20. During the assay, all measurements were referenced against the capture surface alone. Each assay cycle consisted of the following steps: 1) Capture of ligand to approximately 50 RU; 2) Analyte injection over both reference and test surface, 240 μL at 80 μL/min, after which the dissociation was monitored for 900 seconds at 80 μL/min; 3) Regeneration of capture surface with low pH glycine. For kinetic determinations analyte injections were 3-point, 9-fold dilution series of 900 nM, 100 nM and 11.11 nM, buffer only injections were included for secondary referencing. Data were processed and fit to a 1:1 binding model using Biacore T200 Evaluation Software to determine the binding kinetic rate constants, ka (on-rate) and kd (off-rate), and the equilibrium dissociation constant (affinity, KD).

human B7-H3 = molecular target: T2, human B7-H3 (Homo sapiens, UniProt Q5ZPR3); experiment: Epitope grouping by pair-wise Biacore SPR binding; conditions: simultaneous binding assay, FIG. 1
T2 construct: His tag (6xHis) (C)
T2 sequence (Q5ZPR3 with tags, fused parts or gaps): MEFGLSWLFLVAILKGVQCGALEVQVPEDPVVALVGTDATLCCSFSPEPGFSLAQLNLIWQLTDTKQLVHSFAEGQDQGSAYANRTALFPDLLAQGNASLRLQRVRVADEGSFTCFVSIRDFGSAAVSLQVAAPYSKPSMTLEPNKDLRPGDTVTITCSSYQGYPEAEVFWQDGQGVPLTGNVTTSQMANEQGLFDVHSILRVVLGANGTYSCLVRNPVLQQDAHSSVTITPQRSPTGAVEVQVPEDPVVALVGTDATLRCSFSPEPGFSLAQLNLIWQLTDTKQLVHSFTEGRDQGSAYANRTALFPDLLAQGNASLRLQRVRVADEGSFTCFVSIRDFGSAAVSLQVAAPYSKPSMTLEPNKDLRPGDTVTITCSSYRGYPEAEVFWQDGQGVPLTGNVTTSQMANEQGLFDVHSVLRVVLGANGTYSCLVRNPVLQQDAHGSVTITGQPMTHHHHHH
Text: Pair-wise binding assays performed on Biacore T200 SPR instruments were used to determine the relative epitope grouping for the murine anti-B7-H3 mAbs as described in the methods below. […] Epitope groups are represented as individual ovals, some of which overlap with each other. Antibodies in different epitope groups can bind to B7-H3 simultaneously and likely bind to different epitopes while antibodies within a given epitope group cannot bind to B7-H3 simultaneously and likely bind to overlapping epitopes. The grouping information was derived from a simultaneous binding assay as described in materials and methods. Ab3, Ab4, Ab5, Abl 1, Ab12, and Ab8 groupings were ambiguous
Pair-wise binding assays performed on Biacore T200 SPR instruments were used to determine the relative epitope grouping for a series of anti-B7-H3 mAbs. The assay format was Fc-based capture via immobilized anti-mouse (Fc) (Pierce 31170) or immobilized anti-human (Fc) (Pierce 31125). A standard amine coupling protocol was employed to immobilize the capture reagents via primary amines to the carboxy-methyl (CM) dextran surface of CM5 sensorchips (Biacore); capture antibodies were coupled to a level of approximately 2000 RU. Epitope grouping measurements were done at 12° C. (low temperature allows for grouping information on fast off-rate mAbs), the assay buffer was HBS-EP+(Biacore): 10 mM Hepes, pH7.4, 150 mM NaCl, 3 mM EDTA, 0.05% polysorbate 20. Each assay cycle consisted of the following steps in a four flowcell system: 1) separate test mAbs were captured in flowcells 2, 3 & 4 (flowcell 1 was reference, no test mAb); 2) all 4 flowcells were then blocked by injection with isotype control mAb or isotype mAb cocktail at 50 μg/mL; 3) all 4 flowcells were then injected with antigen or buffer only (buffer only is for double referencing, done for each mAb pair individually); 4) all 4 flowcells were then injected with 2nd test mAb at 10 μg/mL; 5) all 4 flowcells were then regenerated with glycine, pH1.5. The assay was done for each test mAb pair in reciprocal orientations. Simultaneous binding was evaluated examining the ratio of the 2nd test mAb response to the Ag response (RUmAb2/RUAg); if this ratio was equal to or greater than 0.2 the interaction was scored as a simultaneous binder. From this pair-wise binding assay data a “venn” style diagram was constructed manually to depict relative epitope groupings.

B1: Ab3: mouse hybridoma anti-B7-H3 monoclonal antibody, mouse IgG1/k (antibody, V domains shown)
VH: QVQLQQPGAELVKPGASVKLSCKASGYTFSSYWMHWVKQRPGQGLEWIGLIHPDSGSTNYNEMFKNKATLTVDRSSSTAYVQLSSLTSEDSAVYFCAGGGRLYFDYWGQGTTLTVSS
VL: DVVMTQTPLSLPVSLGDQASISCRSSQSLVHSNGDTYLRWYLQKPGQSPKLLIYKVSNRFSGVPDRFSGSGSGTDFTLKITRVEAEDLGVYFCSQSTHVPYTFGGGTKLEIK
Q: Which results are given for B1?
A: huB7-H3 ka(1/Ms) (huB7-H3): 520000 M⁻¹ s⁻¹; epitope grouping (human B7-H3): ambiguous

B2: Ab10: mouse hybridoma anti-B7-H3 monoclonal antibody, mouse IgG2b/k (antibody, V domains shown)
VH: DVQLQESGPGLVKPSQSLSLTCTVTGYSITSDYAWNWIRQFPGNRLEWMGHINYSGITNYNPSLKSRISITRDTSKNQFFLQLYSVTTEDTATYFCARRSLFYYYGSSLYAMDYWGQGTSVTVSS
VL: DVVMTQSPFSLPVSLGDQASISCRSSQSLVHSNGNTYLHWYLQKPGQSPKLLIYKVSNRFSGVPDRFSGSGSGTDFTLKISRVEAEDLGVYFCSQSTHVPWTFGGGTKLEIK
Q: How did the “huB7-H3 ka(1/Ms)” value (huB7-H3) turn out when B2 was run?
A: The value was 41000 M⁻¹ s⁻¹.

B3: Ab2: mouse hybridoma anti-B7-H3 monoclonal antibody, mouse IgG1/k (antibody, V domains shown)
VH: QVQLQQPGAELVKPGASVKLSCKASGYTFTSYWMHWVKQRPGQGLEWIGMIHPDSGTTNYNEKFRSKATLTVDKSSSTAYMQLSSLTSEDSAVYYCAVYYGSTYWYFDVWGTGTTVTVSS
VL: DVVMTQTPLSLPVSLGDQAYISCRSSQSLVHINGNTYLHWYRQKPGQSPKLLIYKVSNRFSGVPDRFSGSGSGTDFTLKISRVEAEDLGVYFCSQSTHFPFTFGSGTKLEIK
Q: B3 was tested. Which “huB7-H3 ka(1/Ms)” value (huB7-H3) did it give?
A: The value was 120000 M⁻¹ s⁻¹.

B4: Ab4: mouse hybridoma anti-B7-H3 monoclonal antibody, mouse IgG2b/k (antibody, V domains shown)
VH: QVQLQQPGAELVKPGASVKLSCKASGYSFTSYWMHWVKQRPGQGLEWIGMIHPNSGSNNYNEKFKSKATLTVDKSSNTAYMQLSSLTSEDSAVYYCARRLGLHFDYWGQGTTLTVSS
VL: DIVMTQSQKFMSTPVGDRVSITCKASQNVGTAVAWYQQKPGQSPKLLIYSASNRYTGVPDRFTGSGSGTDFTLTISNMQSEDLADYFCQQYSSYPYTFGGGTKLEIK
Q: How did the “huB7-H3 ka(1/Ms)” value (huB7-H3) turn out when B4 was run?
A: The value was 690000 M⁻¹ s⁻¹.

Q: What about the epitope grouping (human B7-H3) of the same molecule?
A: The epitope grouping was “ambiguous”.

B5: Ab16: mouse hybridoma anti-B7-H3 monoclonal antibody, mouse IgG1/k (antibody, V domains shown)
VH: EVKLLESGGGLVQPGGSLKLSCAASGFDFSRYWMSWVRQAPGKGLEWIGEINPDSSTINYTPSLKDKFIISRDNAKNTLYLQMSKVRSEDTALYYCARPGFGNYIYAMDYWGQGTSVTVSS
VL: DIQMTQTTSSLSASLGDRVTINCRASQDISNFLNWYQQKPDGTVKLLIYYTSRLYLGVPSRFSGSGSGTDYSLTISNLEQEDIATYFCQQGNTLPPTFGGGTKLEIK
Q: B5 was tested. Which “huB7-H3 ka(1/Ms)” value (huB7-H3) did it give?
A: The value was 140000 M⁻¹ s⁻¹.

B6: Ab6: mouse hybridoma anti-B7-H3 monoclonal antibody, mouse IgG1/k (antibody, V domains shown)
VH: QVQLQQSGAELMKPGASVKISCKATGYTFSRYWIEWVKQRPGHGLEWIGEILPGSGSTNYNEKFKGKATFTADTSSNTAYMQVSSLTSEDSAVHYCARRGYGYVPYALDYWGQGTSVTVSS
VL: EIQMTQTTSSLSASLGDRVTISCRASQDISNSLNWYQQKPDGTVNLLIYYTSRLYSGVPSRFSGSGSGTDYSLTISNLEQEDIATYFCQQGNTLPYTFGGGTKLEIK
Q: Which “huB7-H3 ka(1/Ms)” value (huB7-H3) does the source give for B6 here?
A: Its value is 12000 M⁻¹ s⁻¹.

B7: Ab14: mouse hybridoma anti-B7-H3 monoclonal antibody, mouse IgG1/k (antibody, V domains shown)
VH: EVKLVESGGGLVKPGGSLKLSCAASGFTFSSYGMSWVRQTPEKRLEWVATISGGGTNTYYPDSVEGRFTISRDNAKNFLYLQMSSLRSEDTALYYCARHYGSQTMDYWGQGTSVTVSS
VL: DIQMTQSPASLSASVGETVTITCRTSGNIHNYLTWYQQKQGKSPQLLVYNAKTLADGVPSRFSGSGSGTQFSLKINSLQPEDFGSYYCQHFWSIMWTFGGGTKLEIK
Q: With B7 as the molecule, how does the “huB7-H3 ka(1/Ms)” value (huB7-H3) read?
A: Its value is 110000 M⁻¹ s⁻¹.

B8: Ab17: mouse hybridoma anti-B7-H3 monoclonal antibody, mouse IgG2b/k (antibody, V domains shown)
VH: EVKLVESGGGLVQPGGSLKLSCAASGFTFSSYIMSWVRQTPEKRLEWVASIVSSNITYYPDSMKGRFTISRDNARNILYLQMSSLKSEDTAMYYCARSGTRAWFAYWGQGTLVTVSA
VL: DIVLTQSPASLAVSLGQRATISCRASKSVSTSAYSYMHWYQQKPGQPPKLLIYLASNLESGVPARFSGSGSGTDFTLNIHPVEEEDAATYYCQHSRELPYTFGGGTKLEIK
Q: With B8 as the molecule, how does the “huB7-H3 ka(1/Ms)” value (huB7-H3) read?
A: Its value is 540000 M⁻¹ s⁻¹.

B9: Ab5: mouse hybridoma anti-B7-H3 monoclonal antibody, mouse IgG1/k (antibody, V domains shown)
VH: QVQLQQPGDELVKPGASVKLSCKTSGYTFTTDWMHWVKQRPGQGLEWIGMIHPNSGTTNYNEKFKSKAALTVDKSSSTACMQLSSLTSEDSAVYYCARSYWKWYFDVWGTGTTVTVSS
VL: QIVLTQSPAIMSASLGEEITLTCSASSSVSYMHWYQQKSGTSPKLLIYSTSNLASGVPSRFSGSGSGTFYSLTISSVEAEDSADYYCHQWTSYMYTFGGGTKLEIK
Q: What does the source list for B9?
A: huB7-H3 ka(1/Ms) (huB7-H3): 1.3e+06 M⁻¹ s⁻¹; epitope grouping (human B7-H3): ambiguous

B10: Ab18: mouse hybridoma anti-B7-H3 monoclonal antibody, mouse IgG1/k (antibody, V domains shown)
VH: QVQLQQSAAELARPGASVKMSCKASGYSFTSYTIHWVKQRPGQGLEWIGYINPNSRNTDYNQKFKDETTLTADRSSSTAYMQLISLTSEDSAVYYCARYSGSTPYWYFDVWGAGTTVTVSS
VL: QIVLTQSPAILSASPGEKVTMTCRASSSVSYMNWYQQKPGSSPKPWIYATSNLASGVPARFSVSVSGTSHSLTISRVEAEDAATYYCQQWSSNPLTFGAGTKLELK
Q: For B10, which “huB7-H3 ka(1/Ms)” value (huB7-H3) is on record?
A: The value was 210000 M⁻¹ s⁻¹.

B11: Ab13: mouse hybridoma anti-B7-H3 monoclonal antibody, mouse IgG1/k (antibody, V domains shown)
VH: DVQLQESGPDLVKPSQSLSLTCTVTGYSITSGYSWHWIRQFPGNKLEWMGYIHSSGSTNYNPSLKSRISINRDTSKNQFFLQLNSVTTEDTATYYCAGYDDYFEYWGQGTTLTVSS
VL: DIVMTQSQKFMSTSVGDRVSVTCKASQNVGFNVAWYQQKPGQSPKALIYSASYRYSGVPDRFTGSGSGTDFTLTISNVQSEDLAEYFCQQYNSYPFTFGSGTKLEIK
Q: For B11, which “huB7-H3 ka(1/Ms)” value (huB7-H3) is on record?
A: Its value is 330000 M⁻¹ s⁻¹.
